Measured values reported in PMC3959803 (Experimental biology and medicine (Maywood, N.J.), 2009).

Biological target: T1, His-p55 (recombinant His-tagged erythrocyte p55/MPP1) (human, UniProt Q00013-1 1-466)
T1 sequence (looked up): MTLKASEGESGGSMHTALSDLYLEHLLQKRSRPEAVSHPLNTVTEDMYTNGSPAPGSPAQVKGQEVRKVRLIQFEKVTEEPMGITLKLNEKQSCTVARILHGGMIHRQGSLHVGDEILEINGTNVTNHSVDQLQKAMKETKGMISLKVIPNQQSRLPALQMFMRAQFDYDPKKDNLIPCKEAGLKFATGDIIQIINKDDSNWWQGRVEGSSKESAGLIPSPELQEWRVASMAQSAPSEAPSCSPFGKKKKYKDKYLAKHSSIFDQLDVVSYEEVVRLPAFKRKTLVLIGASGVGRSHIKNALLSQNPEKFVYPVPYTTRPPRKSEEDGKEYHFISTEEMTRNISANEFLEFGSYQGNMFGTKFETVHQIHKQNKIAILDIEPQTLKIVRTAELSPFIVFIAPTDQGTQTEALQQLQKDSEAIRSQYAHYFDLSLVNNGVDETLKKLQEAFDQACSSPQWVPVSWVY
Experiment: SPR

B1: MBP-NF2-N (merlin N-terminal half, aa 1-311, including the FERM domain) (domain or fragment, human, UniProt P35240 1-311, looked up)
chain: MAGAIASRMSFSSLKRKQPKTFTVRIVTMDAEMEFNCEMKWKGKDLFDLVCRTLGLRETWFFGLQYTIKDTVAWLKMDKKVLDHDVSKEEPVTFHFLAKFYPENAEEELVQEITQHLFFLQVKKQILDEKIYCPPEASVLLASYAVQAKYGDYDPSVHKRGFLAQEELLPKRVINLYQMTPEMWEERITAWYAEHRGRARDEAEMEYLKIAQDLEMYGVNYFAIRNKKGTELLLGVDALGLHIYDPENRLTPKISFPWNEIRNISYSDKEFTIKPLDKKIDVFKFNSSKLRVNKLILQLCIGNHDLFMRRR
B1 showed a Kd of 3.7 nM.
